Measurements reported in US20220002429A1, “TUMOR CELL AGGREGATION INHIBITORS' FOR TREATING CANCER” (Northwestern University, priority 2018, published 2022).

Test system: TN1 PDX tumor cells
Assay: ex vivo aggregation (clustering) assay of dissociated PDX tumor cells, IncuCyte time-lapse imaging
Format: cell-based, human
Conditions: media supplemented with EGF (10 ng/ml)
Protocol: Cell clustering assay. Freshly dissociated primary tumor cells in single cell suspension were seeded in collagen type I-coated 96-well plates. The plates were put into the IncuCyte live cell imaging system (Essen BioScience), and live images were taken every 2-4 h for up to one week. The cluster number and size were analyzed by Incucyte ZOOM software (Essen BioScience). In specific experiments, primary tumor cells might be sorted based on the expression of CD44 prior to seeding. In other experiments, seeded tumor cells might be transfected with siRNAs (100 nM) or treated with various inhibitors during the clustering assays. For cell viability analysis during clustering, the IncuCyte Cytotox Red reagent (Essen BioScience) was added to the medium according to the manufacturer's instructions.

B1: EGF: epidermal growth factor supplemented to culture media at 10 ng/ml (protein, UniProt P01133 23-1207, looked up)
Pro-epidermal growth factor: PQHWSCPEGTLAGNGNSTCVGPAPFLIFSHGNSIFRIDTEGTNYEQLVVDAGVSVIMDFHYNEKRIYWVDLERQLLQRVFLNGSRQERVCNIEKNVSGMAINWINEEVIWSNQQEGIITVTDMKGNNSHILLSALKYPANVAVDPVERFIFWSSEVAGSLYRADLDGVGVKALLETSEKITAVSLDVLDKRLFWIQYNREGSNSLICSCDYDGGSVHISKHPTQHNLFAMSLFGDRIFYSTWKMKTIWIANKHTGKDMVRINLHSSFVPLGELKVVHPLAQPKAEDDTWEPEQKLCKLRKGNCSSTVCGQDLQSHLCMCAEGYALSRDRKYCEDVNECAFWNHGCTLGCKNTPGSYYCTCPVGFVLLPDGKRCHQLVSCPRNVSECSHDCVLTSEGPLCFCPEGSVLERDGKTCSGCSSPDNGGCSQLCVPLSPVSWECDCFPGYDLQLDEKSCAASGPQPFLLFANSQDIRHMHFDGTDYGTLLSQQMGMVYALDHDPVENKIYFAHTALKWIERANMDGSQRERLIEEGVDVPEGLAVDWIGRRFYWTDRGKSLIGRSDLNGKRSKIITKENISQPRGIAVHPMAKRLFWTDTGINPRIESSSLQGLGRLVIASSDLIWPSGITIDFLTDKLYWCDAKQSVIEMANLDGSKRRRLTQNDVGHPFAVAVFEDYVWFSDWAMPSVMRVNKRTGKDRVRLQGSMLKPSSLVVVHPLAKPGADPCLYQNGGCEHICKKRLGTAWCSCREGFMKASDGKTCLALDGHQLLAGGEVDLKNQVTPLDILSKTRVSEDNITESQHMLVAEIMVSDQDDCAPVGCSMYARCISEGEDATCQCLKGFAGDGKLCSDIDECEMGVPVCPPASSKCINTEGGYVCRCSEGYQGDGIHCLDIDECQLGEHSCGENASCTNTEGGYTCMCAGRLSEPGLICPDSTPPPHLREDDHHYSVRNSDSECPLSHDGYCLHDGVCMYIEALDKYACNCVVGYIGERCQYRDLKWWELRHAGHGQQQKVIVVAVCVVVLVMLLLLSLWGAHYYRTQKLLSKNPKNPYEESSRDVRSRRPADTEDGMSSCPQPWFVVIKEHQDLKNGGQPVAGEDGQAADGSMQPTSWRQEPQLCGMGTEQGCWIPVSSDKGSCPQVMERSFHMPSYGTQTLEGGVEKPHSLLSANPLWQQRALDPPHQMELTQ
modifications: Pro-epidermal growth factor
notes: epidermal growth factor supplemented to culture media at 10 ng/ml
  cluster formation of TN primary tumor cells: increased cluster formation
